Among the data in patent publication US20240360201A1 (BIOCYTOGEN PHARMACEUTICALS BEIJING, published 2024) are Kd, koff and kon values, retold here.

The target of one assay is T1, FcγRIIIA-V176-Acro (human, UniProt P08637 17-208).
T1 construct: bought; Val at 176; also called Human Fc gamma RIIIA/CD16a (V176) Protein, His Tag
Put plainly: SPR (Biacore T200), antibody captured on protein A sensor chip, Fc receptor as analyte; analyte range 400nm-3.125nm. An excerpt:
(§1) The Fc receptors included FcγRIIB (FcγRIIB-Acro), FcγRIIA (FcγRIIA-H167-Acro), FcγRIIIA (FcγRIIIA-V176-Acro), FcγRIIIB (FcγRIIIB-NA1-Acro), FcγRI (FcγRI-Sino), and FcRn (FcRn-Acro).
Background: SPR reads the build-up and loss of mass on a sensor chip optically.

The next assay addresses T2, FcγRIIA-H167-Acro (human, UniProt P12318 36-218, limits assumed).
T2 construct: bought; His at 167; also called Human Fc gamma RIIA/CD32a (H167) Protein, His Tag
T2 sequence (looked up): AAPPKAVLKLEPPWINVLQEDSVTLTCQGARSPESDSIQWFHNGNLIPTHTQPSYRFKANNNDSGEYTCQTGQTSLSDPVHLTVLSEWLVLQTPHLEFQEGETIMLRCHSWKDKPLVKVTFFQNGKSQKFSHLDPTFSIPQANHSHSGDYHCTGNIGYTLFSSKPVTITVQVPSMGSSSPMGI
Nature of the assay: SPR (Biacore T200), antibody captured on protein A sensor chip, Fc receptor as analyte; analyte range 800nm-6.25nm.
Description: as §1

Another assay concerns the target T3, FcγRIIIB-NA1-Acro (human, UniProt O75015 17-200, limits assumed).
T3 construct: bought; also called Human Fc gamma RIIIB/CD16b (NA1) Protein, His Tag
The assay is described as above.
Description: as §1

In assay [1] the target is T4, FcRn (human, UniProt P55899 24-297; P61769 21-119).
T4 construct: bought; also called FcγRn; FcRn-Acro
T4 sequence (P55899 24-297 limits assumed, chain 1 of 2): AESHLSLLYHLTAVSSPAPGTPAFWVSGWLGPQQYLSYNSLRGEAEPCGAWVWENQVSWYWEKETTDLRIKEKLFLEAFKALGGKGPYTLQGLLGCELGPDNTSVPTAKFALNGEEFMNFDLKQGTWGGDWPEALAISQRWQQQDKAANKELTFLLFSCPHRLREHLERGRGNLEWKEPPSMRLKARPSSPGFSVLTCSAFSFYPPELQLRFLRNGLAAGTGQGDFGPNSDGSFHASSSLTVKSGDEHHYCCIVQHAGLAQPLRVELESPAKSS
T4 sequence (P61769 21-119 limits assumed, chain 2 of 2): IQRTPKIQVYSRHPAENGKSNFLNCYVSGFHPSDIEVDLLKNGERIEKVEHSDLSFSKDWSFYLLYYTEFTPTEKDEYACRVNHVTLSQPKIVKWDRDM
Put plainly: SPR (Biacore T200), antibody captured on protein A sensor chip, FcRn-Acro as analyte; analyte range 1000nm-15.625nm.
Description: as §1

Assay [2] has as its target T5, FcγRI-Sino (human, UniProt P12314 16-288, limits assumed).
T5 construct: bought; also called CD64 Protein, Human, Recombinant (His Tag)
Put plainly: SPR (Biacore T200), antibody captured on protein A sensor chip, Fc receptor as analyte; analyte range 400nm-6.25nm.
Description: as §1

In assay [3] the target is T5, FcγRI-Sino. Nature of the assay: SPR Biacore T200; binder captured on protein A chip, Fc receptor as analyte. Here is the method:
(§2) Binding affinities of the fusion proteins PDL1-TGFbR2-3A (IgG1) (or PDL1-TGFbR2-3A-IgG1) and PDL1-TGFbR2-3A-IgG4 to human Fc receptors were measured by surface plasmon resonance (SPR) using Biacore™ T200 biosensor equipped with pre-immobilized protein A sensor chips. The Fc receptors included FcγRI-Sino, FcγRIIA-R167-Sino, FcγRIIIA-F176-Sino, FcγRIIIB-Sino, and FcγRn. A humanized CTLA4 antibody CT4-4G12-IgG1 (CT4-4G12, or 4G12; VH SEQ ID NO: 44, VL SEQ ID NO: 45) was used as a control to test binding affinity to FcγRn.

The next assay addresses T6, FcγRIIA-R167-Sino (human, UniProt P12318 34-218, limits assumed).
T6 construct: bought; Arg at 167; also called FCRIIA-R167-Sino; CD32A Protein, Human, Recombinant (167 Arg, His Tag)
T6 sequence (looked up): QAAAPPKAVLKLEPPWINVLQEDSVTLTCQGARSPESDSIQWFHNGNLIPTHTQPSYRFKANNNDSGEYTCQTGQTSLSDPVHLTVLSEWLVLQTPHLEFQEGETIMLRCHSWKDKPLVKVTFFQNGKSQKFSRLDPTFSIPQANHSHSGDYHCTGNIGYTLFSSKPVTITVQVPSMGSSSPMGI
Described as above. Here is the method:
as §2

Assay [4] concerns the target T4, FcRn. The description is as above. Here is the method:
as §2

The target in the next assay is T7, FcγRIIIB-Sino (human, UniProt O75015 17-200, limits assumed).
T7 construct: bought; also called FCRIIIB-Sino; CD16b Protein, Human, Recombinant (NA1 allotypes, His Tag)
T7 sequence (O75015 other isoform, or with tags, fused parts or gaps limits assumed): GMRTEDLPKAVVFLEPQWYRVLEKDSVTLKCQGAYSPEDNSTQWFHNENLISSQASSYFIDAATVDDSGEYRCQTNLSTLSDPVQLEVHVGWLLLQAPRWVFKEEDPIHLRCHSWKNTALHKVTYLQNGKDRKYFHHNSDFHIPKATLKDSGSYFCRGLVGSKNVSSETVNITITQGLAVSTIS
The description is as above. Here is the method: as §2

A further assay has as its target human CTLA4 (hCTLA4-His) (human, UniProt P16410 36-161, limits assumed). Put plainly: SPR Biacore T200; binder captured on protein A chip, target as analyte. Here is the method: Binding affinities of the fusion proteins against human CTLA4 (hCTLA4-His) or human PD-L1 (hPDL1) were measured by surface plasmon resonance (SPR) using Biacore™ T200 biosensor equipped with pre-immobilized protein A sensor chips. A CTLA4 antibody CT4-4G12-IgG1 (CT4) was used as a control. ATOR1015-CD86 (CD86) and KN035-IgG1 (with D265A mutation in heavy chain constant domain) were also used as controls.

Usually Kd stands for a measure of binding affinity in units of concentration. Usually koff stands for the first-order rate constant of dissociation. High values mean a short-lived complex, low ones a long-lived complex. A word on the kon: it is a measure of how fast the partners come together.

T1 sequence (P08637 17-208 F176V limits assumed): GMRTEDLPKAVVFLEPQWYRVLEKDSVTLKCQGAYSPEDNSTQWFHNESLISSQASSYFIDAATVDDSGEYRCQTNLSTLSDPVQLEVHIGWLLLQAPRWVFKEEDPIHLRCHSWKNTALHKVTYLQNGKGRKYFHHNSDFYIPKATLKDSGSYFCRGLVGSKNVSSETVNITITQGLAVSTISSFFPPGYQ
Sequence of human CTLA4 (hCTLA4-His) (P16410 36-161 limits assumed): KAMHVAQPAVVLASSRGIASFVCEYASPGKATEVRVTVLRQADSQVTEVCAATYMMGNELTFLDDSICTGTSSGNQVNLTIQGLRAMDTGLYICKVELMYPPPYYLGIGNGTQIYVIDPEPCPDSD
T5 sequence (P12314 16-288 limits assumed): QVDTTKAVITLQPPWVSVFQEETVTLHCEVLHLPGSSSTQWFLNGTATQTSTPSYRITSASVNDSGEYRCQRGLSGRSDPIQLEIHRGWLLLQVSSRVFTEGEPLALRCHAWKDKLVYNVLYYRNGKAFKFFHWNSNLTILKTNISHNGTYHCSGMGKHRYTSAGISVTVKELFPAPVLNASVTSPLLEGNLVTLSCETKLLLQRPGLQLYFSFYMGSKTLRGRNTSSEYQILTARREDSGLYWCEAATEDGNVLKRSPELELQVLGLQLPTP
T3 sequence (O75015 other isoform, or with tags, fused parts or gaps limits assumed): as the sequence (O75015 other isoform, or with tags, fused parts or gaps limits assumed) above

B1: PDL1-mIL7-3A (antibody, human IgG1, lambda)
heavy: EVQLLESGGGLVQPGGSLRLSCAASGFTFSSYIMMWVRQAPGKGLEWVSSIYPSGGITFYADTVKGRFTISRDNSKNTLYLQMNSLRAEDTAVYYCARIKLGTVTTVDYWGQGTLVTVSSASTKGPSVFPLAPSSKSTSGGTAALGCLVKDYFPEPVTVSWNSGALTSGVHTFPAVLQSSGLYSLSSVVTVPSSSLGTQTYICNVNHKPSNTKVDKKVEPKSCDKTHTCPPCPAPELLGGPSVFLFPPKPKDTLMISRTPEVTCVVVDVSHEDPEVKFNWYVDGVEVHNAKTKPREEQYNSTYRVVSVLTVLHQDWLNGKEYKCKVSNKALPAPIEKTISKAKGQPREPQVYTLPPSRDEGGGGSGGGGSECHIKDKEGKAYESVLMISIDELDKMTGTDSNCPNNEPNFFRKHVCDDTKEAAFLNRAARKLKQFLKMNISEEFNVHLLTVSQGTQTLVNCTSKEEKNVKEQKKNDACFLKRLLREIKTCWNKILKGSIGGGGSGGGGSVSLTCLVKGFYPSDIAVEWESNGQPENNYKTTPPVLDSDGSFFLYSKLTVDKSRWQQGNVFSCSVMHEALHNHYTQKSLSLSPGA
light: QSALTQPASVSGSPGQSITISCTGTSSDVGGYNYVSWYQQHPGKAPKLMIYDVSNRPSGVSNRFSGSKSGNTASLTISGLQAEDEADYYCSSYTSSSTRVFGTGTKVTVLGQPKANPTVTLFPPSSEELQANKATLVCLISDFYPGAVTVAWKADGSPVKAGVETTKPSKQSNNKYAASSYLSLTPEQWKSHRSYSCQVTHEGSTVEKTVAPTECS
notes: IgG1 immunocytokine
Take B1: the Kd with FcγRIIIA-V176-Acro worked out at 75.5 nM; with FcγRIIA-H167-Acro, 426 nM; in the assay with FcγRIIIB-NA1-Acro it was 479 nM; with FcRn [1] it was 527 nM; with FcγRI-Sino [2], 194 nM.

B2: PDL1-TGFbR2-3A-IgG4 (antibody)
heavy: EVQLLESGGGLVQPGGSLRLSCAASGFTFSSYIMMWVRQAPGKGLEWVSSIYPSGGITFYADTVKGRFTISRDNSKNTLYLQMNSLRAEDTAVYYCARIKLGTVTTVDYWGQGTLVTVSSASTKGPSVFPLAPCSRSTSESTAALGCLVKDYFPEPVTVSWNSGALTSGVHTFPAVLQSSGLYSLSSVVTVPSSSLGTKTYTCNVDHKPSNTKVDKRVESKYGPPCPPCPAPEFLGGPSVFLFPPKPKDTLMISRTPEVTCVVVDVSQEDPEVQFNWYVDGVEVHNAKTKPREEQFNSTYRVVSVLTVLHQDWLNGKEYKCKVSNKGLPSSIEKTISKAKGQPREPQVYTLPPSQEEGGGGSGGGGSIPPHVQKSVNNDMIVTDNNGAVKFPQLCKFCDVRFSTCDNQKSCMSNCSITSICEKPQEVCVAVWRKNDENITLETVCHDPKLPYHDFILEDAASPKCIMKEKKKPGETFFMCSCSSDECNDNIIFSEEYNTSNPDGGGGSGGGGSVSLTCLVKGFYPSDIAVEWESNGQPENNYKTTPPVLDSDGSFFLYSRLTVDKSRWQEGNVFSCSVMHEALHNHYTQKSLSLSLGK
light: QSALTQPASVSGSPGQSITISCTGTSSDVGGYNYVSWYQQHPGKAPKLMIYDVSNRPSGVSNRFSGSKSGNTASLTISGLQAEDEADYYCSSYTSSSTRVFGTGTKVTVLGQPKANPTVTLFPPSSEELQANKATLVCLISDFYPGAVTVAWKADGSPVKAGVETTKPSKQSNNKYAASSYLSLTPEQWKSHRSYSCQVTHEGSTVEKTVAPTECS
notes: IgG4 subtype of PDL1-TGFbR2-3A
In the case of B2, the Kd worked out at 273 nM with FcγRI-Sino [3], 1780 nM with FcγRIIA-R167-Sino, 214 nM in the assay with FcRn [4] and 576 nM in the assay with FcγRIIIB-Sino.

B3: PDL1-mIL7-3A-mIFNa4 (antibody, human IgG1, lambda)
heavy: EVQLLESGGGLVQPGGSLRLSCAASGFTFSSYIMMWVRQAPGKGLEWVSSIYPSGGITFYADTVKGRFTISRDNSKNTLYLQMNSLRAEDTAVYYCARIKLGTVTTVDYWGQGTLVTVSSASTKGPSVFPLAPSSKSTSGGTAALGCLVKDYFPEPVTVSWNSGALTSGVHTFPAVLQSSGLYSLSSVVTVPSSSLGTQTYICNVNHKPSNTKVDKKVEPKSCDKTHTCPPCPAPELLGGPSVFLFPPKPKDTLMISRTPEVTCVVVDVSHEDPEVKFNWYVDGVEVHNAKTKPREEQYNSTYRVVSVLTVLHQDWLNGKEYKCKVSNKALPAPIEKTISKAKGQPREPQVYTLPPSRDEGGGGSGGGGSECHIKDKEGKAYESVLMISIDELDKMTGTDSNCPNNEPNFFRKHVCDDTKEAAFLNRAARKLKQFLKMNISEEFNVHLLTVSQGTQTLVNCTSKEEKNVKEQKKNDACFLKRLLREIKTCWNKILKGSIGGGGSGGGGSVSLTCLVKGFYPSDIAVEWESNGQPENNYKTTPPVLDSDGSFFLYSKLTVDKSRWQQGNVFSCSVMHEALHNHYTQKSLSLSPGAGGGGSGGGGSGGGGSGGGGSCDLPHTYNLGNKRALTVLEEMRRLPPLSCLKDRKDFGFPLEKVDNQQIQKAQAILVLRDLTQQILNLFTSKDLSATWNATLLDSFCNDLHQQLNDLKACVMQEPPLTQEDSLLAVRTYFHRITVYLRKKKHSLCAWEVIRAEVWRALSSSTNLLARLSEEKE
light: QSALTQPASVSGSPGQSITISCTGTSSDVGGYNYVSWYQQHPGKAPKLMIYDVSNRPSGVSNRFSGSKSGNTASLTISGLQAEDEADYYCSSYTSSSTRVFGTGTKVTVLGQPKANPTVTLFPPSSEELQANKATLVCLISDFYPGAVTVAWKADGSPVKAGVETTKPSKQSNNKYAASSYLSLTPEQWKSHRSYSCQVTHEGSTVEKTVAPTECS
notes: 3A-HC format: mIL7 at the 3A site, mIFNa4 at the heavy chain C-terminus through a linker
B3: the Kd with FcγRIIIA-V176-Acro is 17.3 nM; in the assay with FcγRIIA-H167-Acro, 115 nM; in the assay with FcγRIIIB-NA1-Acro, 501 nM; with FcRn [1], 160 nM; with FcγRI-Sino [2], 27.1 nM.

B4: PDL1-avelumab (antibody, human IgG1, lambda)
heavy: not shown
light: QSALTQPASVSGSPGQSITISCTGTSSDVGGYNYVSWYQQHPGKAPKLMIYDVSNRPSGVSNRFSGSKSGNTASLTISGLQAEDEADYYCSSYTSSSTRVFGTGTKVTVLGQPKANPTVTLFPPSSEELQANKATLVCLISDFYPGAVTVAWKADGSPVKAGVETTKPSKQSNNKYAASSYLSLTPEQWKSHRSYSCQVTHEGSTVEKTVAPTECS
notes: IgG1; also called anti-PD-L1 IgG1 antibody; PD-L1 antibody
As for B4, the Kd is 263 nM with FcγRIIIA-V176-Acro; 1050 nM in the assay with FcγRIIA-H167-Acro; 33100 nM in the assay with FcγRIIIB-NA1-Acro; 1250 nM with FcRn [1]; 6.52 nM with FcγRI-Sino [3]; 692 nM in the assay with FcγRIIA-R167-Sino. The values for the Kd in the assay with FcγRIIIB-Sino and with FcγRI-Sino [2] were 1210 nM and 101 nM, respectively.

B5: CT4-4G12-IgG1 (antibody)
heavy: not shown
light: DIQMTQSPSFLSASVGDRVTITCRAGENIYSYLAWYQQKPGKAPKLLIYNARTLAEGVPSRFSGSGSGTEFTLTISSLQPEDFATYYCQHHYGSPRTFGGGTKLEIKRTVAAPSVFIFPPSDEQLKSGTASVVCLLNNFYPREAKVQWKVDNALQSGNSQESVTEQDSKDSTYSLSSTLTLSKADYEKHKVYACEVTHQGLSSPVTKSFNRGEC
notes: IgG1; also called humanized CTLA4 antibody
With B5, in the assay with FcRn [4], the Kd is 126 nM. In the assay with human CTLA4 (hCTLA4-His), this molecule gave a Kd of 5.91 nM, a koff of 0.00151 s⁻¹ and a kon of 256000 M⁻¹ s⁻¹.
